Experimental data as given in article PMC12416549 (2024).
Where a chain is given by its changes, count along the chain named. In names and notes the source's numbering stands.

T1: TNFR1 (Homo sapiens, UniProt P19438)
T1 chain: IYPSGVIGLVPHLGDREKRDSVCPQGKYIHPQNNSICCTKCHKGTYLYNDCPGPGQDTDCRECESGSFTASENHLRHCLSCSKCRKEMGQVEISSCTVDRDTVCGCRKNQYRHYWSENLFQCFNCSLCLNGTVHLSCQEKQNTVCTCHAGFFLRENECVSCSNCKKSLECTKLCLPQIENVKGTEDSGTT

B1: A35I (designed binder)
chain: SMEEEVEKAAKEYEKKKKEAIEKHLEKLKAKDKEIAERFLKELEEAAKEYAKDEAKTMSEEEAKRRAKKYKEKVLLSELSEEEQKEIKEAEEKLVRTILKYVEEAAK
B2: E19G (designed binder)
chain: B1 chain with E19G, I35A
B3: R66N (designed binder)
chain: B1 chain with I35A, R66N
B4: L75S (designed binder)
chain: B1 chain with I35A, L75S
B5: K29Q (designed binder)
chain: B1 chain with K29Q, I35A
B6: E86H (designed binder)
chain: B1 chain with I35A, E86H
B7: E104N (designed binder)
chain: B1 chain with I35A, E104N
B8: F39Y (designed binder)
chain: B1 chain with I35A, F39Y
B9: V74C (designed binder)
chain: B1 chain with I35A, V74C
B10: F39P (designed binder)
chain: B1 chain with I35A, F39P
B11: Y13K (designed binder)
chain: B1 chain with Y13K, I35A
B12: A67P (designed binder)
chain: B1 chain with I35A, A67P
B13: E26T (designed binder)
chain: B1 chain with E26T, I35A
B14: E72A (designed binder)
chain: B1 chain with I35A, E72A
B15: K93G (designed binder)
chain: B1 chain with I35A, K93G
B16: E44M (designed binder)
chain: B1 chain with I35A, E44M
B17: K8G (designed binder)
chain: B1 chain with K8G, I35A
B18: A55S (designed binder)
chain: B1 chain with I35A, A55S
B19: E26M (designed binder)
chain: B1 chain with E26M, I35A
B20: A47F (designed binder)
chain: B1 chain with I35A, A47F
B21: L79Q (designed binder)
chain: B1 chain with I35A, L79Q
B22: Y13R (designed binder)
chain: B1 chain with Y13R, I35A
B23: L43E (designed binder)
chain: B1 chain with I35A, L43E
B24: A46H (designed binder)
chain: B1 chain with I35A, A46H

Target: T1, TNFR1
Assay: yeast display SC50

apparent Kd (screen) [nM]	Binder
0.539	B1
0.49	B2
16.7	B3
0.718	B4
0.593	B5
1.69	B6
0.718	B7
1.4	B8
4.39	B9
4.83	B10
7.07	B11
0.593	B12
0.593	B13
2.73	B14
0.79	B15
0.956	B16
0.593	B17
1.69	B18
0.539	B19
0.593	B20
2.48	B21
12.5	B22
16.7	B23
1.16	B24
